Assay [1] deals with T1, recombinant mouse IL4Rα extracellular domain (Ile26-Arg233), cleaved by factor Xa from the IL4Rα/human IgG1 … (mouse, UniProt P16382 26-233).
T1 construct: range 26-233; Factor Xa cleavage in the IEGRMD spacer may leave some spacer residues at the C-terminus; Covalently linked to M-450 epoxy beads; also called recombinant IL4Rα; IL4Rα conjugated epoxybeads
T1 sequence (looked up): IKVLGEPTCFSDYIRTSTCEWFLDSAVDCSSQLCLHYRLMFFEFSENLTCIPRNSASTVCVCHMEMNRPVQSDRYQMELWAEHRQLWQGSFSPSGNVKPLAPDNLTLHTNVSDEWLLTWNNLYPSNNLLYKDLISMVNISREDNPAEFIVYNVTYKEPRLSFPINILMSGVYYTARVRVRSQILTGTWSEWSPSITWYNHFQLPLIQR
In words: FACS on IL4Rα-conjugated epoxybeads; 4PD against the FITC-peptide. As to the method: (§1) Epoxybeads were conjugated with recombinant IL4Rα and used as binding target of 4PD or of the targeting peptide. Briefly, the recombinant chimeric IL4Rα protein composed by the mouse IL4Rα (Ile26 Arg233) and the human IgG1 (Pro100 Lys330) linked by the IEGRMD spacer polypeptide and generated in the NSO myeloma cell line was purchased by R&D systems (Minneapolis, Minn., USA). The protein was treated for 24 hours with 1.5% w/w factor Xa (SIGMA. St. Louis, Mo., USA) in tris-HCl (20 mM) and NaCl (200 mM) to cleave the IL4Rα extracellular domain. Factor Xa was removed by the solution using the Factor Xa removal resin (QIAGEN, Valencia, Calif., USA) and following the manufacturer instruction. IgG-linker fraction was removed from the solution by using protein-A conjugated magnetic beads (Invitrogen, Carlsbad, Calif., USA). The purity obtained by this procedure assessed by SDS PAGE was higher than 95% with only trace of IgG (data not shown). The obtained IL4Rα fraction was linked to epoxy magnetic beads M-450 by an overnight (ON) incubation at room temperature (RT) of 20×10⁶ beads with 10 μg of protein in a final volume of 1 mL in a sodium phosphate buffer (pH:8.0). […] Correct conjugation was evaluated via FACs after labeling with an anti-IL4Rα antibody.
(§2) Next, the binding of the 4PD to the IL4Rα was evaluated. […] Beads were washed twice with PBS and the binding evaluated by FACS.

Assay [2] addresses T1, recombinant mouse IL4Rα extracellular …. As to the kind of experiment: FACS; Alexa555-shRNA/4PD complexes titrated on IL4Rα-conjugated epoxybeads, 10 min at RT; apparent Kd; peptide conjugated to the dendrimer (4PD). As to the method: as §1, §2
For orientation: Flow cytometry measures light scatter and fluorescence of single cells or particles in a stream.

This note sets out measurements from patent US20200237928A1 (UNIVERSITY OF MIAMI, published 2020).

Side-chain parts run from the residue outwards. [ ]: non-standard residue; d: D form. Abu = CC[C@H](N)C(=O)O; Ahx = NCCCCCC(=O)O

B1: 4PD: G5 PAMAM dendrimer conjugated to the IL4Rα targeting peptide (acetyl)-LQRLFRAFR[Abu]LD[Ahx]C(amide), loaded with Alexa555-conjugated shRNA (other)
peptide: Ac-LQRLFRAFR[Abu]LD[Ahx]C([m‑maleimidobenzoyl-G5 PAMAM dendrimer])-NH2
modifications: also: several peptide copies on one G5 PAMAM dendrimer, complexed with Alexa555-labelled shRNA
notes: Not a plain protein: several copies of the peptide sit on a G5 PAMAM dendrimer (28,826 Da), complexed electrostatically with Alexa555-labelled scrambled shRNA; also called Alexa555-shRNA/4PD complexes; 4PD/Alexa555 complexes
As for B1, the “fold increase of apparent Kd (avidity) against the free peptide” value in assay [1] was about 1000 times. The Kd in assay [2] was 3000 nM.
